B1: M2B05 (antibody, V domains shown)
VH: QVQLQQWGAGLLRPSETLSLTCTVYGGSFGGYHWSWIRQSPGKGLEWIGEIDHGGNTNFNPSLKSRVTISVDRSKKQFSLKLTSVTAADTAVYYCARGFGVVINNWFDPWGQGTLVTVSS
VL: DIQMTQSPSSLSASVGDRVTITCRASQTINSYLNWYQQKPGKAPTLLIYTVSSLQSGVPSRFSGSGSGTVFSLTISSLQPEDFATYYCQQSYNSPYTFGQGTKLEIK
notes: IgG
B2: M2C01 (antibody, V domains shown)
VH: EVQLVESGGDLAKPGGSLRLSCEASGFTFSNAWMSWVRQAPGKGLEWVGQIKPHTDGATTDYAAPVKGRFTISRDDSKSTLYLRMNILRIEDTAMYYCTTGPRLSLMWGQGTRVTVSS
VL: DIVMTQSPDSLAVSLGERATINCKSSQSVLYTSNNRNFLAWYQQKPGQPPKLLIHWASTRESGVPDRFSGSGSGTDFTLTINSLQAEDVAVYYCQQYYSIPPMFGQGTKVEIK
notes: IgG
B3: M3C01 (antibody, V domains shown)
VH: QLQLQESGPGLVKPSETLSLTCTVSGGSISSSSYFWGWIRQPPGKGLEWIGSVFYSGSTYYNPSLKSRVTISVDTPKNQFSLRLSSVTAADTAVYYCARHSWDRWVYWGQGTLVTVSS
VL: DIQMTQSPSSVSASVGDRVTITCRASQDISSWLAWYQQKPGKAPKLLIYAASSLQSGVPSRFSGSGSGTDFTLTISSLQPEDFATYYCQQANSFPLTFGGGTKVEIK
notes: IgG
B4: M3E05 (antibody, V domains shown)
VH: EVQLVESGGSVIQPGGSLRLSCAASGFSVRTNYMNWVRQAPGKGLEWVSVIYSDGRTYYSDSVKGRFTISRDNSMNNVFLQMNSLRAEDTAVYYCARDPTFYSSSWWYLDHWGQGTQVTVSS
VL: SYELTQALSVSVARGQTAKITCGGNNIGVRNVHWYQQKPGQAPVLVIYRDNIRPSGIPERFSGSNSGNMAALTISSAQEGDEADYYCQVWDSNTAHVIFGGGTKLTVL
notes: IgG
B5: M3A05 (antibody, V domains shown)
VH: QITLKESGPTLVKPTQTLTLTCTFSGFSLNTGGVSVGWIRQPPGKALEWLALIYWDGDKRYSPSLKSRLTITKDTSKNQVVFTMTNMDPVDTATYYCAHRENSAYIDFWGQGTLVTVSS
VL: QSVLTQPPSVSAAPGQKVTISCSGSSSNIGNNYVSWYQQLPGAAPKLLIYDNNKRPSGIPDRFSGSKSGTSASLGITGLQTGDEADYYCGTWDSSLSVGFYVFGTGTKVTVL
notes: IgG
B6: M3E06 (antibody, V domains shown)
VH: EVQLVESGGGLVQPGGSLRLSCAASGFTFSSYWMSWVRQAPGKGLEWVANIKQDGSEKYYVDSVKGRFTISRDNAKNSLYLQMNSLRAEDTAVYYCARYYYDSSGYYYYYYYYMDVWGKGTTVTVSS
VL: not shown
notes: IgG
B7: M3D08 (antibody, V domains shown)
VH: QVQLQESGPGLVKPSETLSLTCSVSGVSISSHYWSWIRQPAGKGLEWIGRLYTSGTTTYNPSLNSRVTMSVDTTNNRLSLRLTSVTAADTAVYYCARDVRLTVFGALHNWFDPWGQGILVTVSS
VL: DIQMTQSPSSLSASVGDRVTITCRASQSIGTHLNWYQQQRGRAPKLLVYAASGLQSGVPSRFSGSGSGTYFTLTISSLQPEDFATYYCQQSYSTPSITFGQGSRLDIK
notes: IgG
B8: M3A11 (antibody, V domains shown)
VH: EVQLVESGGGLVQPGGSLRLSCAASGFTFSDYSMNWVRQAPGQGLEWISYISSTGSTIYYADSVRGRFTISRDNAKNSLYLQMNTLRAEDTAVYYCARGKTTVTIWFDPWGQGTLVTVSS
VL: SYVLTQPPSVSVAPGQTARITCGGNNIGSKSVHWYQQKPGQAPVLVVYDDSDRPSGIPERFSGSNSGNTATLTISRVEAGDEADYYCQVWHSSSDWVFGGGTRLTVL
notes: IgG

Biological target: T1, Unprocessed hMPV PreF trimer (human metapneumovirus, strain B2)
T1 construct: also called Unprocessed hMPV WT PreF trimer; unprocessed hMPV PreF trimeric antigen
Assay: BLI, mAb on anti-human Fc sensor

| Binder | Octet binding response |
| --- | --- |
| B1 | 0.447 nm |
| B2 | 0.107 nm |
| B3 | 0.0597 nm |
| B4 | 0.126 nm |

Biological target: T2, Processed stabilized hMPV PreF trimer (115BV) (human metapneumovirus, strain B2)
T2 construct: also called Processed hMPV PreF trimer; processed PreF
Assay: BLI, mAb on anti-human Fc sensor

| Binder | Octet binding response |
| --- | --- |
| B5 | 0.0071 nm |
| B1 | 0.542 nm |
| B6 | 0.0101 nm |
| B7 | 0.0113 nm |

Biological target: T3, hMPV PostF trimer (human metapneumovirus, strain B2)
T3 construct: also called MPV PostF (dPFv1)
Assay: BLI, mAb on anti-human Fc sensor

| Binder | Octet binding response |
| --- | --- |
| B5 | 0.229 nm |
| B1 | 0.486 nm |
| B2 | -0.0726 nm |
| B3 | 0.327 nm |
| B4 | 0.509 nm |
| B6 | 0.329 nm |
| B8 | 0.414 nm |
| B7 | 0.307 nm |

Biological target: T2, Processed stabilized hMPV PreF trimer …
Assay: BLI, ratio to unprocessed PreF trimer

| Binder | processed/unprocessed PreF trimer binding ratio |
| --- | --- |
| B5 | 0.09 |
| B6 | 0.18 |
| B7 | 0.17 |
